≈ marks a conversion by molar mass, not a printed value. Like-named read-outs stand apart in the source and are kept apart here.
Tests used:
[1] = system: S. aureus Newman; type: cell-based, Staphylococcus aureus; conditions: for Mutational frequency at 4× MIC / Mutational frequency at 10× MIC: LB agar, 24 hr, mean ± SD
Method: (§1) Antibiotic resistance frequency was determined on LB agar plates containing 4× and 10×, the minimum inhibitory concentrations of several antibiotics. MICs were determined for S. aureus Newman in liquid LB media. […] Briefly, S. aureus Newman was grown in LB media to late log-phase and centrifuged at 4000 × g for 15 min before resuspension at an OD600 nm of 30 (~1E11 CFU/mL) in LB media. One hundred microliter aliquots of concentrated S. aureus was plated in duplicate on selective and non-selective plates and incubated at 37°C. After 24 hr, mutation rates were calculated by counting the number of colonies present and dividing by the total number of colonies plated. Experiments were performed in triplicate.

[2] = system: S. aureus Newman; test: Minimum inhibitory concentration (MIC) in liquid LB media; type: cell-based; conditions: Staphylococcus aureus
Method: as §1

[3] = substrate: CCSCCC(=O)OCOc1ccc2c(c1)Oc1cc(OCOC(=O)CCSCC)ccc1C21OC(=O)c2ccccc21; test: Esterase substrate specificity, fluorogenic SAR library kinetics; type: biochemical, Staphylococcus aureus; conditions: other: SaFrmB 15 µg/mL, pH 7.5, 37°C
Method: (§2) Kinetic measurements were performed according to [White et al., 2018] with minor variation. Lyophilized human and mouse sera were resuspended according to manufacturer instructions in highly pure, filtered water at protein concentrations of 85 mg/mL and 70 mg/mL, respectively. One milliliter of resuspended serum was added to a 24 mL mastermix for a final concentration of 31.25 mM Tris pH 7.5, 312.5 mM NaCl, 1.25 mM MgCl2, 12.5% glycerol, and 3.4 mg/mL or 2.8 mg/mL protein for human and mouse serum, respectively. For purified proteins, 5 mL of a 75 µg/mL stock was added to yield a 20 mL mastermix containing 31.25 mM Tris pH 7.5, 312.5 mM NaCl, 1.25 mM MgCl2, 12.5% glycerol, and 18.75 µg/mL protein. Mastermix was stored on ice when not in use. Twenty microliters of mastermix was transferred to a black, 96-well half area microplate (Corning, CLS3993) and prewarmed at 37°C. Fluorogenic substrates were prepared as 10 mM stock solutions in 100% DMSO and were diluted in water to a starting concentration of 500 µM. Enzyme catalyzed substrate hydrolysis was initiated by addition of 5 µL substrate dilution in technical duplicate to the prewarmed serum or protein solution. Final assay concentrations were as follows: 25 mM Tris pH 7.5, 250 mM NaCl, 1 mM MgCl2, 10% glycerol, and protein at a concentration of 2.72 mg/mL (human serum), 2.24 mg/mL (mouse serum), or 15 µg/mL (FrmB, GloB). The resulting change in fluorescence (λex = 485 nm, λem = 520 nm) was followed for 15 min at 37°C, collecting data every 30 s on a FLUOstar Omega microplate reader (BMG Labtech). Fluorescence measurements were converted to molar concentrations using a fluorescein standard curve (2.5 nmol–0.6 pmol). The initial rates of reaction were measured three independent times with two technical replicates per measurement and fit to a line using GraphPad Prism (GraphPad Software, La Jolla, CA). Initial rates of reaction were plotted versus the concentration of substrate and fit to a standard Michaelis–Menten equation (v = Vmax[S]/(Km + [S])), yielding estimates of Vmax and Km. Values for kcat and kcat/Km were calculated based on amount of enzyme added when purified enzymes were used.

[4] = substrate: COCCC(=O)OCOc1ccc2c(c1)Oc1cc(OCOC(=O)CCOC)ccc1C21OC(=O)c2ccccc21; test: as above; type: biochemical, Staphylococcus aureus; conditions: other: SaFrmB 15 µg/mL, pH 7.5, 37°C
Method: as §2

[5] = substrate: CC(C)OCC(=O)OCOc1ccc2c(c1)Oc1cc(OCOC(=O)COC(C)C)ccc1C21OC(=O)c2ccccc21; test: as above; type: biochemical, Staphylococcus aureus; conditions: other: SaFrmB 15 µg/mL, pH 7.5, 37°C
Method: as §2

[6] = substrate: COC(C)(C)C(=O)OCOc1ccc2c(c1)Oc1cc(OCOC(=O)C(C)(C)OC)ccc1C21OC(=O)c2ccccc21; test: as above; type: biochemical, Staphylococcus aureus; conditions: other: SaFrmB 15 µg/mL, pH 7.5, 37°C
Method: as §2

[7] = substrate: CSCCC(=O)OCOc1ccc2c(c1)Oc1cc(OCOC(=O)CCSC)ccc1C21OC(=O)c2ccccc21; test: as above; type: biochemical, Staphylococcus aureus; conditions: other: SaFrmB 15 µg/mL, pH 7.5, 37°C
Method: as §2

[8] = substrate: COC(C)C(=O)OCOc1ccc2c(c1)Oc1cc(OCOC(=O)C(C)OC)ccc1C21OC(=O)c2ccccc21; test: as above; type: biochemical, Staphylococcus aureus; conditions: other: SaFrmB 15 µg/mL, pH 7.5, 37°C
Method: as §2

[9] = substrate: CCOC(C)C(=O)OCOc1ccc2c(c1)Oc1cc(OCOC(=O)C(C)OCC)ccc1C21OC(=O)c2ccccc21; test: as above; type: biochemical, Staphylococcus aureus; conditions: other: SaFrmB 15 µg/mL, pH 7.5, 37°C
Method: as §2

[10] = substrate: CC(C)SCC(=O)OCOc1ccc2c(c1)Oc1cc(OCOC(=O)CSC(C)C)ccc1C21OC(=O)c2ccccc21; test: as above; type: biochemical, Staphylococcus aureus; conditions: other: SaFrmB 15 µg/mL, pH 7.5, 37°C
Method: as §2

[11] = substrate: CCCCC(=O)OCOc1ccc2c(c1)Oc1cc(OCOC(=O)CCCC)ccc1C21OC(=O)c2ccccc21; test: as above; type: biochemical, Staphylococcus aureus; conditions: other: SaFrmB 15 µg/mL, pH 7.5, 37°C
Method: as §2

[12] = substrate: COCC(=O)OCOc1ccc2c(c1)Oc1cc(OCOC(=O)COC)ccc1C21OC(=O)c2ccccc21; test: as above; type: biochemical, Staphylococcus aureus; conditions: other: SaFrmB 15 µg/mL, pH 7.5, 37°C
Method: as §2

[13] = substrate: CCCOCC(=O)OCOc1ccc2c(c1)Oc1cc(OCOC(=O)COCCC)ccc1C21OC(=O)c2ccccc21; test: as above; type: biochemical, Staphylococcus aureus; conditions: other: SaFrmB 15 µg/mL, pH 7.5, 37°C
Method: as §2

[14] = substrate: CCCC(=O)OCOc1ccc2c(c1)Oc1cc(OCOC(=O)CCC)ccc1C21OC(=O)c2ccccc21; test: as above; type: biochemical, Staphylococcus aureus; conditions: other: SaFrmB 15 µg/mL, pH 7.5, 37°C
Method: as §2

[15] = substrate: CCOCC(=O)OCOc1ccc2c(c1)Oc1cc(OCOC(=O)COCC)ccc1C21OC(=O)c2ccccc21; test: as above; type: biochemical, Staphylococcus aureus; conditions: other: SaFrmB 15 µg/mL, pH 7.5, 37°C
Method: as §2

[16] = S. aureus Newman, liquid LB media, read-out: MIC

CCC[C@@H]1C[C@@H](C(=O)N[C@@H]([C@H]2O[C@H](SC)[C@H](O)[C@@H](O)[C@H]2O)[C@H](C)Cl)N(C)C1 [Clindamycin]
Mutational frequency at 4× MIC [1]: <1 E-10 | Mutational frequency at 10× MIC [1]: <1 E-10 | MIC [2, 16]: 0.25 µg/mL (≈ 0.588 µM)

CC(=O)NC[C@H]1CN(c2ccc(N3CCOCC3)c(F)c2)C(=O)O1 [Linezolid]
Mutational frequency at 4× MIC [1]: <1 E-10 | Mutational frequency at 10× MIC [1]: <1 E-10 | MIC [2, 16]: 1.67 µg/mL (≈ 4.95 µM)

CCOc1ccc2ccccc2c1C(=O)N[C@@H]1C(=O)N2[C@@H]1SC(C)(C)[C@@H]2C(=O)O [Nafcillin]
Mutational frequency at 4× MIC [1]: <1 E-10 | Mutational frequency at 10× MIC [1]: <1 E-10 | MIC [2, 16]: 0.5 µg/mL (≈ 1.21 µM)

CO[C@H]1/C=C/O[C@@]2(C)Oc3c(C)c(O)c4c(O)c(c(/C=N/N5CCN(C)CC5)c(O)c4c3C2=O)NC(=O)/C(C)=C\C=C\[C@H](C)[C@H](O)[C@@H](C)[C@@H](O)[C@@H](C)[C@H](OC(C)=O)[C@@H]1C [Rifampicin]
Mutational frequency at 4× MIC [1]: 8.96 ± 0.20 E-08 | Mutational frequency at 10× MIC [1]: 7.64 ± 2.10 E-08 | Spontaneous resistance frequency ([1]; at 4 and 10 times the MIC): ~ 8E-8 | MIC [2, 16]: 0.0075 µg/mL (≈ 0.00911 µM)

CN[C@H](CC(C)C)C(=O)N[C@H]1C(=O)N[C@@H](CC(N)=O)C(=O)N[C@H]2C(=O)N[C@H]3C(=O)N[C@H](C(=O)N[C@H](C(=O)O)c4cc(O)cc(O)c4-c4cc3ccc4O)[C@H](O)c3ccc(c(Cl)c3)Oc3cc2cc(c3O[C@@H]2O[C@H](CO)[C@@H](O)[C@H](O)[C@H]2O[C@H]2C[C@](C)(N)[C@H](O)[C@H](C)O2)Oc2ccc(cc2Cl)[C@H]1O [Vancomycin]
Mutational frequency at 4× MIC [1]: <1 E-10 | Mutational frequency at 10× MIC [1]: <1 E-10 | MIC ([2]; NEWMAN): 2 µg/mL (≈ 1.38 µM)

B1: SaFrmB (Staphylococcus aureus subsp. aureus str. Newman) (protein)
chain: MAYISLNYHSPTIGMHQNLTVILPEDQSFFNSDTTVKPLKTLMLLHGLSSDETTYMRYTSIERYANEHKLAVIMPNVDHSAYANMAYGHSYYDYILEVYDYVHQIFPLSKKRDDNFIAGHSMGGYGTIKFALTQGDKFAKAVPLSAVFEAQNLMDLEWNDFSKEAIIGNLSSVKGTEHDPYYLLDKAVAEDKQIPKLLIMCGKQDFLYQDNLDFIDYLSRINVPYQFEDGPGDHDYAYWDQAIKRAITWMVND
notes: made in house; host or cells: E. coli BL21 (DE3)
Km [3]: 11.1 µM | Vmax [3]: 0.0295 pmol*min-1*μg protein-1 | kcat [3]: 0.00556 10-3 s-1 | kcat/Km [3]: 0.500 M⁻¹ s⁻¹ | Km [4]: 30.0 µM | Vmax [4]: 0.183 pmol*min-1*μg protein-1 | kcat [4]: 0.0345 10-3 s-1 | kcat/Km [4]: 1.15 M⁻¹ s⁻¹ | Km [5]: 9.17 µM | Vmax [5]: 0.597 pmol*min-1*μg protein-1 | kcat [5]: 0.112 10-3 s-1 | kcat/Km [5]: 12.3 M⁻¹ s⁻¹ | Km [6]: 74.2 µM | Vmax [6]: 0.163 pmol*min-1*μg protein-1 | kcat [6]: 0.0307 10-3 s-1 | kcat/Km [6]: 0.414 M⁻¹ s⁻¹ | Km [7]: 52.7 µM | Vmax [7]: 0.505 pmol*min-1*μg protein-1 | kcat [7]: 0.0950 10-3 s-1 | kcat/Km [7]: 1.80 M⁻¹ s⁻¹ | Km [8]: 107 µM | Vmax [8]: 2.57 pmol*min-1*μg protein-1 | kcat [8]: 0.485 10-3 s-1 | kcat/Km [8]: 4.52 M⁻¹ s⁻¹ | Km [9]: 18.3 µM | Vmax [9]: 0.163 pmol*min-1*μg protein-1 | kcat [9]: 0.0307 10-3 s-1 | kcat/Km [9]: 1.68 M⁻¹ s⁻¹ | Km [10]: 36.3 µM | Vmax [10]: 0.629 pmol*min-1*μg protein-1 | kcat [10]: 0.118 10-3 s-1 | kcat/Km [10]: 3.27 M⁻¹ s⁻¹ | Km [11]: 26.5 µM | Vmax [11]: 0.0637 pmol*min-1*μg protein-1 | kcat [11]: 0.0120 10-3 s-1 | kcat/Km [11]: 0.452 M⁻¹ s⁻¹ | Km [12]: 30.3 µM | Vmax [12]: 5.98 pmol*min-1*μg protein-1 | kcat [12]: 1.13 10-3 s-1 | kcat/Km [12]: 37.2 M⁻¹ s⁻¹ | Km [13]: 9.95 µM | Vmax [13]: 0.621 pmol*min-1*μg protein-1 | kcat [13]: 0.117 10-3 s-1 | kcat/Km [13]: 11.7 M⁻¹ s⁻¹ | Km [14]: 30.4 µM | Vmax [14]: 0.149 pmol*min-1*μg protein-1 | kcat [14]: 0.0280 10-3 s-1 | kcat/Km [14]: 0.921 M⁻¹ s⁻¹ | Km [15]: 13.9 µM | Vmax [15]: 2.04 pmol*min-1*μg protein-1 | kcat [15]: 0.385 10-3 s-1 | kcat/Km [15]: 27.7 M⁻¹ s⁻¹

Reference: PMC8318587, “Structure-guided microbial targeting of antistaphylococcal prodrugs” (eLife, 2021)
